# Results reported in patent US20180155451A1 (published 2018).
# T1: FcγRIIb (human, UniProt P31994 43-217)
# T1 construct: extracellular domain; also called FcgRIIb; 2b
# T1 sequence (looked up): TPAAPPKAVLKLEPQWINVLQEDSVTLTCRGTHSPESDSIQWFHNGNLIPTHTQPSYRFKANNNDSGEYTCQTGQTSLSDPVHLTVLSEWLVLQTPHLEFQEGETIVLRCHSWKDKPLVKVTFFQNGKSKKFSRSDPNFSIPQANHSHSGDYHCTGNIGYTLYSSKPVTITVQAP
# T2: FcγRIIb (human, UniProt P31994 43-217)
# T2 construct: extracellular domain; also called 2b
# T2 sequence (looked up): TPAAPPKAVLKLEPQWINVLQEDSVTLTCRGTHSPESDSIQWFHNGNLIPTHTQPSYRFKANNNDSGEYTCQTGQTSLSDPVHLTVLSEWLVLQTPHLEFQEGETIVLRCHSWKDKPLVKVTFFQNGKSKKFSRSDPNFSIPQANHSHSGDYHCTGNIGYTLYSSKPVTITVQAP
# T3: FcγRIIa H (human, UniProt P12318 34-217)
# T3 construct: extracellular domain; also called FcγRIIa type H; 2aH
# T3 sequence (looked up): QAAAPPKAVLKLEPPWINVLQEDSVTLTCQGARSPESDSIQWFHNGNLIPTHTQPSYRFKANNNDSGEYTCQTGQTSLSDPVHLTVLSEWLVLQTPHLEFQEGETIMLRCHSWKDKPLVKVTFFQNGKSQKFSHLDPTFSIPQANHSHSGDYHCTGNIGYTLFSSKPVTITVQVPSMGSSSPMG
# Experiments:
# FcγRIIb [1] = target: T1, FcγRIIb; experiment: SPR, captured antibody; relative to GpH7-A5/GpH7-B3/GpL16-k0
# FcγRIa = target: T4, FcγRIa (human, UniProt P12314 16-292); experiment: as above
# T4 construct: extracellular domain; also called FcgRI; 1a
# T4 sequence (P12314 16-292): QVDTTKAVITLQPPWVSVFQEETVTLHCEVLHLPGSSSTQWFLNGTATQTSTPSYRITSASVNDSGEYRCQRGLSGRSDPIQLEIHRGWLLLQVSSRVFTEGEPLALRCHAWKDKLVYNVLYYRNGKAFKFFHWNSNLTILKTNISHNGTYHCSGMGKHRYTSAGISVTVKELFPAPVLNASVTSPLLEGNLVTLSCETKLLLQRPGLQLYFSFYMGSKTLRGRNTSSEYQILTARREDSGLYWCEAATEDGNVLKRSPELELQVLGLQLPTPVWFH
# FcγRIIb [2] = target: T2, FcγRIIb; experiment: SPR (Biacore), relative binding vs GpH7-A5/GpH7-B3/GpL16-k0
# Protocol: (§1) The heterodimerized antibodies He Abs in which one of the H chains was introduced with an alteration were assayed for their binding activities to each activating FcγR and inhibitory FcγR according to the method described in Example 4. […] The activating FcγRs in FIGS. 26, 27, 28, and 29 are FcγRIa, FcγRIIa (R), FcγRIIa (H), and FcγRIIIa, respectively.
# (§2) Analysis of interaction between objective antibody and the FcγR was carried out using Biacore T100 (GE Healthcare). HBS-EP+ (GE Healthcare) was used as the running buffer, and the measurement temperature was set to 25° C. Chips produced by immobilizing the antigen peptide by the amine coupling method to a Series S Sencor Chip CM5 (GE Healthcare), or alternatively, chips produced by allowing preliminarily biotinylated antigen peptides to interact with and immobilize onto a Series S Sensor Chip SA (certified) (GE Healthcare) were used. Antibodies of interest were captured onto an antigen peptide-immobilized chip, and allowed to interact to each FcγR diluted with running buffer. To regenerate and repeatedly use the chip, the antibodies captured on the chip were washed off by reacting 10 mM glycine-HCl, pH 1.5.
# FcγRIIa H = target: T3, FcγRIIa H; experiment: as above
# Protocol: as §1, §2
Binder,He/Con_2b (FcγRIIb [1]),He/Con_1a (FcγRIa),He/Con_2b (FcγRIIb [2]),He/Con_2aH (FcγRIIa H)
"GpH7-A5/GpH7-B3 variant (E269_01G)/GpL16-k0 (antibody, human IgG1, kappa, IgG1 heterodimer, mutation in the GpH7-B3 chain only; also called He Ab) heavy 1: not shown heavy 2: not shown light: DIVMTQSPLSLPVTPGEPASISCQASESLVHSNRNTYLHWYLQKPGQSPQLLIYKVSNRFSGVPDRFSGSGSGTDFTLKISRVEAEDVGVYYCSQNTHVPPTFGQGTKVEIERTVAAPSVFIFPPSDEQLKSGTASVVCLLNNFYPREAKVQWKVDNALQSGNSQESVTEQDSKDSTYSLSSTLTLSKADYEKHKVYACEVTHQGLSSPVTKSFNRGEC","51.5 relative, HeCon Ab = 100","104 relative, HeCon Ab = 100",,
"GpH7-A5/GpH7-B3 variant (E269_14T)/GpL16-k0 (antibody, human IgG1, kappa, IgG1 heterodimer, mutation in the GpH7-B3 chain only; also called He Ab) heavy 1: not shown heavy 2: not shown light: DIVMTQSPLSLPVTPGEPASISCQASESLVHSNRNTYLHWYLQKPGQSPQLLIYKVSNRFSGVPDRFSGSGSGTDFTLKISRVEAEDVGVYYCSQNTHVPPTFGQGTKVEIERTVAAPSVFIFPPSDEQLKSGTASVVCLLNNFYPREAKVQWKVDNALQSGNSQESVTEQDSKDSTYSLSSTLTLSKADYEKHKVYACEVTHQGLSSPVTKSFNRGEC","50.6 relative, HeCon Ab = 100","106 relative, HeCon Ab = 100",,
"GpH7-A5/GpH7-B3 variant P331_15Y/GpL16-k0 (antibody, human IgG1, kappa, heterodimerized IgG1, mutation in one H chain only; also called He Ab) heavy 1: not shown heavy 2: not shown light: DIVMTQSPLSLPVTPGEPASISCQASESLVHSNRNTYLHWYLQKPGQSPQLLIYKVSNRFSGVPDRFSGSGSGTDFTLKISRVEAEDVGVYYCSQNTHVPPTFGQGTKVEIERTVAAPSVFIFPPSDEQLKSGTASVVCLLNNFYPREAKVQWKVDNALQSGNSQESVTEQDSKDSTYSLSSTLTLSKADYEKHKVYACEVTHQGLSSPVTKSFNRGEC",,,114 % of control He Ab (=100),86 % of control He Ab (=100)
"GpH7-A5/GpH7-B3 variant P331_10E/GpL16-k0 (antibody, human IgG1, kappa, heterodimerized IgG1, mutation in one H chain only; also called He Ab) heavy 1: not shown heavy 2: not shown light: DIVMTQSPLSLPVTPGEPASISCQASESLVHSNRNTYLHWYLQKPGQSPQLLIYKVSNRFSGVPDRFSGSGSGTDFTLKISRVEAEDVGVYYCSQNTHVPPTFGQGTKVEIERTVAAPSVFIFPPSDEQLKSGTASVVCLLNNFYPREAKVQWKVDNALQSGNSQESVTEQDSKDSTYSLSSTLTLSKADYEKHKVYACEVTHQGLSSPVTKSFNRGEC",,,116 % of control He Ab (=100),87.1 % of control He Ab (=100)

# Continued, values first:
He/Con_2b (FcγRIIb [1]),He/Con_1a (FcγRIa),He/Con_2b (FcγRIIb [2]),He/Con_2aH (FcγRIIa H),Binder
,"78 relative, HeCon Ab = 100",,,"GpH7-A5/GpH7-B3 variant (L235_12R)/GpL16-k0 (antibody, human IgG1, kappa, IgG1 heterodimer, mutation in the GpH7-B3 chain only; also called He Ab) heavy 1: not shown heavy 2: not shown light: DIVMTQSPLSLPVTPGEPASISCQASESLVHSNRNTYLHWYLQKPGQSPQLLIYKVSNRFSGVPDRFSGSGSGTDFTLKISRVEAEDVGVYYCSQNTHVPPTFGQGTKVEIERTVAAPSVFIFPPSDEQLKSGTASVVCLLNNFYPREAKVQWKVDNALQSGNSQESVTEQDSKDSTYSLSSTLTLSKADYEKHKVYACEVTHQGLSSPVTKSFNRGEC"
"43.9 relative, HeCon Ab = 100","103 relative, HeCon Ab = 100",,,"GpH7-A5/GpH7-B3 variant (E269_07I)/GpL16-k0 (antibody, human IgG1, kappa, IgG1 heterodimer, mutation in the GpH7-B3 chain only; also called He Ab) heavy 1: not shown heavy 2: not shown light: DIVMTQSPLSLPVTPGEPASISCQASESLVHSNRNTYLHWYLQKPGQSPQLLIYKVSNRFSGVPDRFSGSGSGTDFTLKISRVEAEDVGVYYCSQNTHVPPTFGQGTKVEIERTVAAPSVFIFPPSDEQLKSGTASVVCLLNNFYPREAKVQWKVDNALQSGNSQESVTEQDSKDSTYSLSSTLTLSKADYEKHKVYACEVTHQGLSSPVTKSFNRGEC"
"44.7 relative, HeCon Ab = 100","106 relative, HeCon Ab = 100",,,"GpH7-A5/GpH7-B3 variant (E269_15Y)/GpL16-k0 (antibody, human IgG1, kappa, IgG1 heterodimer, mutation in the GpH7-B3 chain only; also called He Ab) heavy 1: not shown heavy 2: not shown light: DIVMTQSPLSLPVTPGEPASISCQASESLVHSNRNTYLHWYLQKPGQSPQLLIYKVSNRFSGVPDRFSGSGSGTDFTLKISRVEAEDVGVYYCSQNTHVPPTFGQGTKVEIERTVAAPSVFIFPPSDEQLKSGTASVVCLLNNFYPREAKVQWKVDNALQSGNSQESVTEQDSKDSTYSLSSTLTLSKADYEKHKVYACEVTHQGLSSPVTKSFNRGEC"
"45.1 relative, HeCon Ab = 100","103 relative, HeCon Ab = 100",,,"GpH7-A5/GpH7-B3 variant (E269_03V)/GpL16-k0 (antibody, human IgG1, kappa, IgG1 heterodimer, mutation in the GpH7-B3 chain only; also called He Ab) heavy 1: not shown heavy 2: not shown light: DIVMTQSPLSLPVTPGEPASISCQASESLVHSNRNTYLHWYLQKPGQSPQLLIYKVSNRFSGVPDRFSGSGSGTDFTLKISRVEAEDVGVYYCSQNTHVPPTFGQGTKVEIERTVAAPSVFIFPPSDEQLKSGTASVVCLLNNFYPREAKVQWKVDNALQSGNSQESVTEQDSKDSTYSLSSTLTLSKADYEKHKVYACEVTHQGLSSPVTKSFNRGEC"
